# Test results as given in patent publication US20250326826A1 (CENTRO DE INGENIER A GEN TICA Y BIOTECNOLOG A, published 2025).
# T1: GST-hVEGF121 (human, UniProt P15692-9 27-147)
# T1 construct: plate coating of the VEGF ELISAs; also called human VEGF; not shown: glutathione S-transferase (GST) fusion partner
# T1 sequence (looked up): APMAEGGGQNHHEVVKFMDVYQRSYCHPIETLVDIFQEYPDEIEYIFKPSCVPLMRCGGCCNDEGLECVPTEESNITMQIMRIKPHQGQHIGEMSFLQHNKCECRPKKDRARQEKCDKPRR
# Legend:
# Recombinant human bFGF [1] = target: T2, Recombinant human bFGF (human, UniProt P09038 143-288, limits assumed); assay: ELISA, coated human bFGF
# T2 construct: Bought (Sigma); also called hFGF-2; human basic fibroblast growth factor
# T2 sequence (P09038 143-288 limits assumed): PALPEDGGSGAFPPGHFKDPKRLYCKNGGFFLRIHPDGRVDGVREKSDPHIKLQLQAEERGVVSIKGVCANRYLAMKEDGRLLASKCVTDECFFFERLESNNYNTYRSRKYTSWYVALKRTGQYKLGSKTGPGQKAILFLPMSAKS
# Recombinant human bFGF [2] = target: T2, Recombinant human bFGF; assay: competition ELISA, coated bFGF, competitor Fc-FGFR1
# GST-hVEGF121 [3] = target: T1, GST-hVEGF121; assay: ELISA, coated GST-hVEGF
# GST-hVEGF121 [4] = target: T1, GST-hVEGF121; assay: competition ELISA, coated GST-hVEGF, competitor Fc-VEGFR2
Binder,EC50 (Recombinant human bFGF [1]) [nM],IC50 (Recombinant human bFGF [2]) [nM],EC50 (GST-hVEGF121 [3]) [nM],IC50 (GST-hVEGF121 [4]) [nM]
"Nb-F3\cmycH6 (VHH, Nb-F3 without c-myc tracer peptide and histidine tag) VHH: QVQLVESGGGLVQPGGSLRLSCAASGTEDGRLLTLGGSWFRQAPGQGLEAVAAIGAGDRGGATYYADSVKGRFTISRDNSKNTLYLQMNSLRAEDTAVYYCTALYERQPQLAATKVARKWGQGTLVTVSS",11.5,134,–,–
"Nb-V1\cmycH6 (VHH, Nb-V1 without c-myc tracer peptide and histidine tag) VHH: QVQLVESGGGLVQPGGSLRLSCAASGNSAEDRLYNSYTWFRQAPGQGLEAVAAISSHFSAGLTYYADSVKGRFTISRDNSKNTLYLQMNSLRAEDTAVYYCEITSHASHNDAWSTPRTVWGQGTLVTVSS",–,–,4.64,28.6
"Nb-VV6\cmycH6 (VHH, Nb-VV6 without c-myc tracer peptide and histidine tag) QVQLVESGGGLVQPGGSLRLSCAASGNSAEDRLYNSYTWFRQAPGQGLEAVAAISSHFSAGLTYYADSVKGRFTISRDNSKNTLYLQMNSLRAEDTAVYYCEITSHASHNDAWSTPRTVWGQGTLVTVSSAHHSEDPSSKAPKAPAQVQLVESGGGLVQPGGSLRLSCAASGNSAQDRLYNSYTWFRQAPGQGLEAVAAISSHFSAGLTYYADSVKGRFTISRDNSKNTLYLQMNSLRAEDTAVYYCEITSHASHNDAWSTPRTVWGQGTLVTVSS",–,–,1.78,5.23

# Next, values leading:
EC50 (Recombinant human bFGF [1]) [nM],IC50 (Recombinant human bFGF [2]) [nM],EC50 (GST-hVEGF121 [3]) [nM],IC50 (GST-hVEGF121 [4]) [nM],Binder
11.5,137,4.84,28.4,"Nb-VF3\cmycH6 (bispecific antibody, Nb-VF3 without c-myc tracer peptide and histidine tag) QVQLVESGGGLVQPGGSLRLSCAASGNSAEDRLYNSYTWFRQAPGQGLEAVAAISSHFSAGLTYYADSVKGRFTISRDNSKNTLYLQMNSLRAEDTAVYYCEITSHASHNDAWSTPRTVWGQGTLVTVSSAHHSEDPSSKAPKAPAQVQLVESGGGLVQPGGSLRLSCAASGTEDGRLLTLGGSWFRQAPGQGLEAVAAIGAGDRGGATYYADSVKGRFTISRDNSKNTLYLQMNSLRAEDTAVYYCTALYERQPQLAATKVARKWGQGTLVTVSS"
5.98,53.7,–,–,"Nb-FF2\cmycH6 (VHH, Nb-FF2 without c-myc tracer peptide and histidine tag) QVQLVESGGGLVQPGGSLRLSCAASGTEDGRLLTLGGSWFRQAPGQGLEAVAAIGAGDRGGATYYADSVKGRFTISRDNSKNTLYLQMNSLRAEDTAVYYCTALYERQPQLAATKVARKWGQGTLVTVSSAHHSEDPSSKAPKAPAQVQLVESGGGLVQPGGSLRLSCAASGTEDGRLLTLGGSWFRQAPGQGLEAVAAIGAGDRGGATYYADSVKGRFTISRDNSKNTLYLQMNSLRAEDTAVYYCTALYERQPQLAATKVARKWGQGTLVTVSS"
